The series “AUC” deals with the molecule itself. Briefly: AUC.
The series “crystal structure” deals with the molecule itself. Briefly: crystal structure.

Where a chain is given by its changes, count along the chain named. Names and notes keep the numbering of the source. Values joined by “and” are separate entries in the source; they are usually repeats but may differ in a detail not shown here. Identical values can stand only once.

B1: LepI (enzyme)
chain: ETVAAIKTLIQQLAQSTDQFGRAEINDALRELQYSLETPFDTVMRMSLDTCQVAVARIGSDLGLFKHLSQCASPQSAEELADHLGCGRELMSRLLRYMASVRMVQQTDDIKYISSNITQTLAVPGLEAGMRHAFENLWPVLMALPDFLAERKYPDIVDAKDTAFQKAFNTDQDCFHWLATQPTRIANFKVLLTDERTPNFLSTFPLEKELGSWSAEPEKALFVDIGGGMGHACIRLREKYPNQPGRVILQDLPPVLQAAQATLPLSGIESMPHNFHTPQPVQGAKFYFLRLILRDFPDHQALEILQNIVPAMDAESRIVIDDGVPPEKGARWAETGTDICIMSALGSKERTQRQWEELAAKAGLQLQALYQYTWPVVNAAMVFSLQ
On to B1, for which the “stoichiometry N” value in “AUC” was 2 and 4.

B2: LepI (C52A) (enzyme)
chain: B1 chain with C51A
For B2, the binding result in the series “crystal structure” is “binds”.

As a reminder, the stoichiometry N is the number of molecules, sites or subunits per partner or assembly.

The values above are taken from paper PMC6708486 (Nature chemistry, 2019).
